The assay addresses T1, Recombinant His-tagged WASp (mouse, UniProt P70315 1-520).
T1 sequence (looked up): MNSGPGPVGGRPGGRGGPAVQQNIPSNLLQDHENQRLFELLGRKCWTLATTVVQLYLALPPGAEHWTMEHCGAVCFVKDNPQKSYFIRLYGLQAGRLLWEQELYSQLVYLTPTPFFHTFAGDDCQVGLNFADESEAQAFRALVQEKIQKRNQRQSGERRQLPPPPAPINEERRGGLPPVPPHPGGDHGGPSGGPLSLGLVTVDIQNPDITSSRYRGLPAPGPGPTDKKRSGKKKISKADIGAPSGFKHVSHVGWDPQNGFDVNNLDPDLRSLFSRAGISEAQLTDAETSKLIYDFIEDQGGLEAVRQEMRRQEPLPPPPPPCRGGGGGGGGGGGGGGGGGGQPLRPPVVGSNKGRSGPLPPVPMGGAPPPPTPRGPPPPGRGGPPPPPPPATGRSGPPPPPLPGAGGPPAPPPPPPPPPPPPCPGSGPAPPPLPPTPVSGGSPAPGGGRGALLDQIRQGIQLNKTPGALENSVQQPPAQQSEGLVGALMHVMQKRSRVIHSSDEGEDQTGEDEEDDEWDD
Kind of assay: pull-down.

B1: GST fusion protein of the Skap2 SH3 domain (domain or fragment, mouse, UniProt Q3UND0 296-357, looked up)
chain: DYANFYQGLWDCTGALSDELSFKRGDVIYILSKEYNRYGWWVGEMKGAIGLVPKAYLMEMYD
Turning to B1, the binding result is listed as “binds”.

The values are drawn from paper PMC5339670 (The Journal of Experimental Medicine, 2017).
